{
  "source": "paper PMC10397247",
  "assay_in_all_cases": "two-hybrid library CCNG1;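 also: natural log of median RNA to DNA barcode read ratio; higher means stronger binding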",
  "key": {"P4A-bP": {"biological_target": "T1, P4A-bP", "T1 chain": "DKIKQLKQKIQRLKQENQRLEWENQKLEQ"}, "P2A-bP": {"biological_target": "T2, P2A-bP", "T2 chain": "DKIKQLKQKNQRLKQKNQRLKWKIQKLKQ"}, "P5A-bP": {"biological_target": "T3, P5A-bP", "T3 chain": "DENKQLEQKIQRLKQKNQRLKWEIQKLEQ"}, "P3A-bP": {"biological_target": "T4, P3A-bP", "T4 chain": "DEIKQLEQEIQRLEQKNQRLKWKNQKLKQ"}, "P6A-bP": {"biological_target": "T5, P6A-bP", "T5 chain": "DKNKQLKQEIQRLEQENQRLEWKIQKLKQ"}, "P8A-bP": {"biological_target": "T6, P8A-bP", "T6 chain": "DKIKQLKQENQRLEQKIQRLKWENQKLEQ"}, "P9A-bP": {"biological_target": "T7, P9A-bP", "T7 chain": "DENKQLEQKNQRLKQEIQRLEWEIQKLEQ"}, "P7A-bP": {"biological_target": "T8, P7A-bP", "T8 chain": "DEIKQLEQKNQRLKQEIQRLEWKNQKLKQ"}, "P3A-bS": {"biological_target": "T9, P3A-bS", "T9 chain": "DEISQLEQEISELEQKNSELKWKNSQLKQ"}, "P2A-bS": {"biological_target": "T10, P2A-bS", "T10 chain": "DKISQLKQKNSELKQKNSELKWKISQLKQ"}, "P5A-bS": {"biological_target": "T11, P5A-bS", "T11 chain": "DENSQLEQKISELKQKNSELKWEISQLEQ"}, "P6A-bS": {"biological_target": "T12, P6A-bS", "T12 chain": "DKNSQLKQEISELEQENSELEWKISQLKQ"}, "P7A-bS": {"biological_target": "T13, P7A-bS", "T13 chain": "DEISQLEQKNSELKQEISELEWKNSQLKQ"}, "P8A-bS": {"biological_target": "T14, P8A-bS", "T14 chain": "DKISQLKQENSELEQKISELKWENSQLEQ"}, "P4A-bS": {"biological_target": "T15, P4A-bS", "T15 chain": "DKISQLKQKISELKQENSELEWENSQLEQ"}, "P9A-bS": {"biological_target": "T16, P9A-bS", "T16 chain": "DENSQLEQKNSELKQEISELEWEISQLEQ"}, "P1mSN": {"biological_target": "T17, P1mSN", "T17 chain": "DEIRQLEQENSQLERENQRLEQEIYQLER"}, "4H363-bA": {"biological_target": "T18, 4H363-bA", "T18 chain": "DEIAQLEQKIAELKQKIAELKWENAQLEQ"}, "4H3907-bA": {"biological_target": "T19, 4H3907-bA", "T19 chain": "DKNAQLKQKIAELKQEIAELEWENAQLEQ"}, "4H470-bA": {"biological_target": "T20, 4H470-bA", "T20 chain": "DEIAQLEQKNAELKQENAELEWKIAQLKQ"}, "4H2745-bA": {"biological_target": "T21, 4H2745-bA", "T21 chain": "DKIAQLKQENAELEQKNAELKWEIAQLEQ"}, "4H344-bA": {"biological_target": "T22, 4H344-bA", "T22 chain": "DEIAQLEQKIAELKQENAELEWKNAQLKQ"}, "4H3974-bA": {"biological_target": "T23, 4H3974-bA", "T23 chain": "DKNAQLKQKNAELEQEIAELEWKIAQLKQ"}, "4H3961-bA": {"biological_target": "T24, 4H3961-bA", "T24 chain": "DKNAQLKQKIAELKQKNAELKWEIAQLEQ"}},
  "data": [
    {"binder": "DKIKQLKQKNQRLKQKNQRLKWKIQKLKQ", "note": "[P2A-bP]", "values": [
      {"measurement": "interaction score", "setting": "P4A-bP", "result": -1.81},
      {"measurement": "interaction score", "setting": "P2A-bP", "result": 0.0236},
      {"measurement": "interaction score", "setting": "P5A-bP", "result": -1.71},
      {"measurement": "interaction score", "setting": "P3A-bP", "result": -1.2},
      {"measurement": "interaction score", "setting": "P6A-bP", "result": -0.533},
      {"measurement": "interaction score", "setting": "P8A-bP", "result": -0.672},
      {"measurement": "interaction score", "setting": "P9A-bP", "result": -0.913},
      {"measurement": "interaction score", "setting": "P7A-bP", "result": -2.54}
    ]},
    {"binder": "DKISQLKQKNSELKQKNSELKWKISQLKQ", "note": "[P2A-bS]", "values": [
      {"measurement": "interaction score", "setting": "P3A-bS", "result": -0.857},
      {"measurement": "interaction score", "setting": "P2A-bS", "result": -1.36},
      {"measurement": "interaction score", "setting": "P5A-bS", "result": -0.924},
      {"measurement": "interaction score", "setting": "P6A-bS", "result": -1.71},
      {"measurement": "interaction score", "setting": "P7A-bS", "result": -0.792},
      {"measurement": "interaction score", "setting": "P8A-bS", "result": -0.742},
      {"measurement": "interaction score", "setting": "P4A-bS", "result": -0.497},
      {"measurement": "interaction score", "setting": "P9A-bS", "result": -0.777}
    ]},
    {"binder": "DKIAQLKQENAELEQKNAELKWEIAQLEQ", "note": "[4H2745-bA]", "values": [
      {"measurement": "interaction score", "setting": "P1mSN", "result": -0.547},
      {"measurement": "interaction score", "setting": "4H363-bA", "result": -1.18},
      {"measurement": "interaction score", "setting": "4H3907-bA", "result": -1.14},
      {"measurement": "interaction score", "setting": "4H470-bA", "result": 2.34},
      {"measurement": "interaction score", "setting": "4H2745-bA", "result": -0.711},
      {"measurement": "interaction score", "setting": "4H344-bA", "result": 0.257},
      {"measurement": "interaction score", "setting": "4H3974-bA", "result": 0},
      {"measurement": "interaction score", "setting": "4H3961-bA", "result": -1.18}
    ]}
  ]
}
